{
  "source": "a protein production outcome set (Wang et al. 2014)",
  "data": [
    {"assay": "label from the status in PepcDB records", "values": [
      {"sequence": "KSEAGAGKKVQVEFVSANPTGPLHIGHGRGAAIGDTICRLLAAIGWDVTREFYYNDAGQQIANLALSVQARCLGVEPGGPLWPTDGYQGEYIKDVARSYLNRETVDAGDQHVTAAGDPHDVEAIRRFAVAYLRREQDQDLRAFDVGFDVYFLESSLYAEGRVDDVVQRIIAKGHAYEQDGALWLRTTEFGDDKDRVMRKSDGSYTYFVPDVAYHLNKWERGFIRVVNEQGADHHSTITRVRAGLQALDAGIPKGWPEYVLHQMVTVMRGGEEVKISKRAGSYVTLRDLVDEVGRDATRFFFLMRKPDSQLVFDIDLAKQQTLENPVYYVQYAHARICSIFENAADKGVVPPT", "protein production": "failed"},
      {"sequence": "KSIRLAKEKESQADYISTYVEWQYIDKNITQCFDKMTNMKLEVAWKAKKKDTVVQIHNQDFTVDLSTNTATAPQGQTFTVQRLVKA", "protein production": "not failed"},
      {"sequence": "KSLTLVLHRDSGSLGFNIIGGRPSVDNHDGSSSEGIFVSKIVDSGPAAKEGGLQIHDRIIEVNGRDLSRATHDQAVEAFKTAKEPIVVQVLRRT", "protein production": "not failed"},
      {"sequence": "KTITGFYPLNQGHDALLARTSLIESAQKSLDLQYYIYRGDETSQLITWRLYEAAKRGVRIRLLLDDMQKRNDNVMAALNAHPNIEIRLFNPHQYRSARIFALTSDFERLNRRMHNKSLIADSVSAIVGGRNIGNEYFSFESEVEFGDFDLLLYGEAVQQTADQFDLYWNSVHAVPMEWISPQSQSVSDAAIQKQVTKLNLQEKFSSGRYDFTALDMYQ", "protein production": "failed"},
      {"sequence": "KTMKMRKFTIADASLERSPGQEADISVGNLVDERHGGPITIGYGRYAPGQSLTETMAVDDVMIVLEGRLSVSTDGETVTAGPGEIVYMPKGETVTIRSHEEGALTAYVTYPHWRPAHA", "protein production": "not failed"},
      {"sequence": "KTNFKIVLKEDSELLQEVVVTGYGGKVSRSKLTNSISTVNPQMLDKGIYTNPSQALSGSVPGLKVSLTSGNPTSSPKIILRGGTNFDGSGGPLVVVDGQLRDNFDDINPQDIASMDVLKDAGATAIYGARASNGVILITTKSGKAGH", "protein production": "failed"},
      {"sequence": "KVDKKTYKNLIVELQQRMREIQFALYERKIPLVLVFEGMDAAGKGGNIKRIREKLDPTGYEVNGISAPTDVELKHHYLWRFAKKMPKSGHIEIFDRSWYGRVLVERVEGFASQNEWQRASDEINQFEKMWTDEGTIILKFFLCLDKDEQLKRFKDRENNPDKQWKITEEDWRNREKWDEYLEASHDMIESTNTSYAPWYIVPADHKKTSRIEVLKTIIRKCEEVLWGVKTY", "protein production": "failed"},
      {"sequence": "LAAWHLSSADYIADTLRLQGMTARGQVLDFGGGIGTHALSAAALPQVDHVWFVDLNPHNQAFVEQRAAALGLSDKLSVHRDLESTGEVRFDTVVCLDVLEHLPDPSAQLQAFHQRMASDATALLNWYFFKGHDGEYPFHFDDPQ", "protein production": "failed"},
      {"sequence": "LADVEARARIAIDAAGMGTWDLRPQEGLLLWDDRCKTLFGVPTSTEMSLEVFYAGIYPDDLPLVREAVEHAMRPESDGHYRVEFRIAQPNGLEPRWLLSSGQSQFVDDQCVRFSGVLQDIHAQRQATQALRQLNEMLGER", "protein production": "not failed"},
      {"sequence": "LDTLRRYHRQTLQDLPMGVCSLAKDQEVLMWNRAIEELTGVGAQKVVGSRLSALPEPWKGLLERFIDAPDEHLHKQRLVYDGHTRWLNLHKAAIEEPLAPGNSGLVLLVEDLTETQLLEDKLVHSERLASIGRLAAGVAHEIGNPITGI", "protein production": "not failed"},
      {"sequence": "LEEALGILDTQRVEIAKRRHLNAVLRHIPAGVAAVDNQGVVQSLNPALAQLLDLPVSAALGRPLQQLCPELDLQQALQEGTGEENRVMRLGSHAVVSNLLPILENGERTGLVLTCQDITVVQRADQRIR", "protein production": "failed"},
      {"sequence": "LEMKGKRMSVTAVMRELEKEENLYRRSGGGITLSGGEPLAQPEFARELLKACKAKGWHTAIETSGFTTKAVIDEVFPYVDLALTDIKAIDPEIHERNTGVNNRVILENLLRISFLTKVVVRIPVIPGVNDNSQEIHNIAEFARLMQNVDTIHLLPYHSFGENKYNLLGRQYPMGDTKSIEESQMAELKAMVESLGFNCHIGG", "protein production": "failed"},
      {"sequence": "LETERNRYKWLFENAVHGIFQASLQAGMRAANPALARMLGYQDPQEVLFSLADLAGNLFVGGAGELAAIGEQLQNQRSLLGYETQLRRKDGSSIDVLMNLLLKPDQDGLVEGFVADITERKLAQQHLEQLNDQLEQR", "protein production": "failed"},
      {"sequence": "LETSSYLNVLVNSQWKSRWCSVRDNHLHFYQDRNRSKVAQQPLSLVGCEVVPDPSPDHLYSFRILHKGEELAKLEAKSSEEMGHWLGLLLSESG", "protein production": "not failed"},
      {"sequence": "LGRITQHIAIKQDITEQVHRFNQLKISEERYRNLMNAVADGIFIHNLQGAFLEVNEAACLSLNYSREELINSYVWDIEVGFSQESLNQLWENVQKGPINTEGMHRRKDGTTFPVDVRLAVFNATGEKLVLAIVRDI", "protein production": "failed"}
    ]}
  ]
}
